Measurements from US20030143228A1, “Human telomerase reverse transcriptase as a class-II restricted tumor-associated antigen” (Baylor College of Medicine, priority 2001, published 2003).

B1: clone 35: positive clone of the DU145 tumor retrogen library; ORF encodes a 171 aa hTRT polypeptide (SEQ.ID.NO.4) (nucleic acid)
DNA: ATCCCGCAGGGCTCCATCCTCTCCACGCTGCTCTGCAGCCTGTGCTACGGCGACATGGAGAACAAGCTGTTTGCGGGGATTCGGCGGGACGGGCTGCTCCTGCGTTTGGTGGATGATTTCTTGTTGGTGACACCTCACCTCACCCACGCGAAAACCTTCCTCAGGACCCTGGTCCGAGGTGTCCCTGAGTATGGCTGCGTGGTGAACTTGCGGAAGACAGTGGTGAACTTCCCTGTAGAAGACGAGGCCCTGGGTGGCACGGCTTTTGTTCAGATGCCGGCCCACGGCCTATTCCCCTGGTGCGGCCTGCTGCTGGATACCCGGACCCTGGAGGTGCAGAGCGACTACTCCAGCTATGCCCGGACCTCCATCAGAGCCAGTCTCACCTTCAACCGCGGCTTCAAGGCTGGGAGGAACATGCGTCGCAAACTCTTTGGGGTCTTGCGGCTGAAGTGTCACAGCCTGTTTCTGGATTTGCAGGTGAACAGCCTCCAGACGGTGTGCACCAACATCTACAAG
modifications: Human
B2: clone 8: positive clone of the DU145 tumor retrogen library; ORF encodes a 291 aa hTRT polypeptide (SEQ.ID.NO.3) (nucleic acid)
DNA: ATCCTGGCCAAGTTCCTGCACTGGCTGATGAGTGTGTACGTCGTCGAGCTGCTCAGGTCTTTCTTTTATGTCACGGAGACCACGTTTCAAAAGAACAGGCTCTTTTTCTACCGGAAGAGTGTCTGGAGCAAGTTGCAAAGCATTGGAATCAGACAGCACTTGAAGAGGGTGCAGCTGCGGGAGCTGTCGGAAGCAGAGGTCAGGCAGCATCGGGAAGCCAGGCCCGCCCTGCTGACGTCCAGACTCCGCTTCATCCCCAAGCCTGACGGGCTGCGGCCGATTGTGAACATGGACTACGTCGTGGGAGCCAGAACGTTCCGCAGAGAAAAGAGGGCCGAGCGTCTCACCTCGAGGGTGAAGGCACTGTTCAGCGTGCTCAACTACGAGCGGGCGCGGCGCCCCGGCCTCCTGGGCGCCTCTGTGCTGGGCCTGGACGATATCCACAGGGCCTGGCGCACCTTCGTGCTGCGTGTGCGGGCCCAGGACCCGCCGCCTGAGCTGTACTTTGTCAAGGTGGATGTGACGGGCGCGTACGACACCATCCCCCAGGACAGGCTCACGGAGGTCATCGCCAGCATCATCAAACCCCAGAACACGTACTGCGTGCGTCGGTATGCCGTGGTCCAGAAGGCCGCCCATGGGCACGTCCGCAAGGCCTTCAAGAGCCACGTCTCTACCTTGACAGACCTCCAGCCGTACATGCGACAGTTCGTGGCTCACCTGCAGGAGACCAGCCCGCTGAGGGATGCCGTCGTCATCGAGCAGAGCTCCTCCCTGAATGAGGCCAGCAGTGGCCTCTTCGACGTCTTCCTACGCTTCATGTGCCACCACGCCGTGCGCATCAGGGGCAAGTCCTACGTCCAGTGCCAGGGG
modifications: Human

System: T-cells primed by the pool 5-transduced DC
Assay: DC-based immunogenetic screening of tumor retrogen library, [3H]-thymidine incorporation
Type: cell-based, human
Conditions: T-cells 2×10^5, DC 2×10^4
Procedure: cDNA from the mRNA of prostate tumor cells (DU145) were generated by cDNA synthesis kits (CLONTECH). cDNA with sizes of 400 bp or higher were digested with Sau3A I (Bio-Lab) after fractionation with SizeSep™ 400 columns (Amersham Pharmacia Biotech) and inserted into the BamH I-cut pSBFc-DS. Ligated DNA was then transformed into E. coli, and library quality was confirmed by examining dozens of individual clones with different insert sizes and DNA sequences. Individual colonies were then cultured individually and pooled for the isolation of plasmid DNA. Recombinant retroviral retrogen vectors (pools) were generated by transfection of the plasmid DNA pools into packaging cells with GeneJammer (Stratagene). Two or three days later, the culture medium containing the retroviral vectors was harvested, filtered, and then used for DC transduction or stored at −80° C.
DC-based immunogenetic screening approach was used to identify unknown class II-restricted TAA from a tumor retrogen library.
After several rounds of screening of 12,000 individual clones in the library, two sub-pools (5-VI-C and -D) containing genes capable of stimulating CD4+ T-cells were identified. The 40 individual clones in the sub-pools 5-VI-C and -D were individually transduced into autologous CD34+-derived DC. […]

| Molecule | T-cell response to autologous DC transduced with individual clones |
| --- | --- |
| B1 | strong T-cell response |
| B2 | strong T-cell response |
